Tested on: K4 kissing-loop RNA reporter
Test: apparent KD of K4 kissing-loop reporter; higher = weaker reporter binding
Details: Eterna round: R107
Experimental: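 RNA-MaP round R107: designed RNA switches with theophylline, tryptophan, arginine or FMN aptamers are transcribed on-chip within common flanks. They are titrated with a labelled K4 kissing-loop RNA reporter in RNA-MaP buffer (100 mM Tris pH 7.5, 80 mM KCl, 4 mM MgCl2), without ligand or with the indicated ligand. Median apparent KD per design.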

[1] = input ligand: theophylline 20 uM
[2] = input ligand: tryptophan 2.4 mM
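Further: bound reporter read as fluorescence of individual clusters on recovered sequencing chips by microscopy, with normalized cluster intensities fitted with a binding model.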

## CCGCUGUACUGCAUUAAGUGAUGUUUAGUGCAGGAUAUCUGGAAACAGAGAAGGGCAUGUACUCGACUUAGCCACUACAGCGGUU
Input ligand: FMN 200 uM
  apparent KD of K4 kissing-loop reporter: 221 nM
Input ligand: arginine 13.2 mM
  apparent KD of K4 kissing-loop reporter: 123 nM
Input ligand: none
  apparent KD of K4 kissing-loop reporter: 142 nM
[1]
  apparent KD of K4 kissing-loop reporter: 119 nM
[2]
  apparent KD of K4 kissing-loop reporter: 129 nM

## AAAGGAGUGGAAGGAUAUCCUGGUGUGGGUGGUGUUAGUGAUGUUGGUGGUGCAGUGAUGUUGCGCGGAGAAGGUCCGGUAUUGG [BDazzled - #2 - Exc. FMN B]
Input ligand: FMN 200 uM
  apparent KD of K4 kissing-loop reporter: 485 nM
Input ligand: arginine 13.2 mM
  apparent KD of K4 kissing-loop reporter: 462 nM
Input ligand: none
  apparent KD of K4 kissing-loop reporter: 437 nM
[1]
  apparent KD of K4 kissing-loop reporter: 517 nM
[2]
  apparent KD of K4 kissing-loop reporter: 410 nM

## GUCCCGAGUGAUGUUCGGGUCGUUUGGGAAGGAGCGCCCGGAAGGGCAGGUAGGUCGCCCGGACCGUGCAGGUAACUGUGCGGCC [#2 Same State - Arginine A Attempt #18 (HarryS)]
Input ligand: FMN 200 uM
  apparent KD of K4 kissing-loop reporter: 176 nM
Input ligand: arginine 13.2 mM
  apparent KD of K4 kissing-loop reporter: 146 nM
Input ligand: none
  apparent KD of K4 kissing-loop reporter: 181 nM
[1]
  apparent KD of K4 kissing-loop reporter: 196 nM
[2]
  apparent KD of K4 kissing-loop reporter: 178 nM

## UUUUACGAGUGAUGUUCGUAAUGUAAUAGUUAGGAUAUCGUUUUUUCGAGAAGGAACUUCGAAGUGAUACGAAAGUAUCGCUUCG [FMN A 9]
Input ligand: FMN 200 uM
  apparent KD of K4 kissing-loop reporter: 127 nM
Input ligand: arginine 13.2 mM
  apparent KD of K4 kissing-loop reporter: 160 nM
Input ligand: none
  apparent KD of K4 kissing-loop reporter: 184 nM
[1]
  apparent KD of K4 kissing-loop reporter: 154 nM
[2]
  apparent KD of K4 kissing-loop reporter: 159 nM

## GGGUGGCAGACGGCCGCCACUCUUAGCAGCCAGUGAGUGAUGUUCGUGGCGGAGUGAUGUUCCUAGAGGACCGGGUUUGUUGUUC [Same State Tryptophan B GF 20]
Input ligand: FMN 200 uM
  apparent KD of K4 kissing-loop reporter: 413 nM
Input ligand: arginine 13.2 mM
  apparent KD of K4 kissing-loop reporter: 259 nM
Input ligand: none
  apparent KD of K4 kissing-loop reporter: 478 nM
[1]
  apparent KD of K4 kissing-loop reporter: 412 nM
[2]
  apparent KD of K4 kissing-loop reporter: 318 nM

## GGUAGCAUGGCGGCCGCCACUUAUGUUCACAUAGUGAUGUUAUGUUCACAUUUAUGGCCCUGCUUAAGGACCGGGCCAUGCUACC
Input ligand: FMN 200 uM
  apparent KD of K4 kissing-loop reporter: 118 nM
Input ligand: arginine 13.2 mM
  apparent KD of K4 kissing-loop reporter: 90.3 nM
Input ligand: none
  apparent KD of K4 kissing-loop reporter: 105 nM
[1]
  apparent KD of K4 kissing-loop reporter: 82.1 nM
[2]
  apparent KD of K4 kissing-loop reporter: 272 nM

## GUAGGAUGAGGAGGAGGAUGAAUUACUGAAGGAGCGCAUAUUUUUGCAGGUAGGUCGCGGUAAAGAAGUAUAGUGAUGUUAUAUA [SSArgA.J]
Input ligand: FMN 200 uM
  apparent KD of K4 kissing-loop reporter: 410 nM
Input ligand: arginine 13.2 mM
  apparent KD of K4 kissing-loop reporter: 434 nM
Input ligand: none
  apparent KD of K4 kissing-loop reporter: 381 nM
[1]
  apparent KD of K4 kissing-loop reporter: 624 nM
[2]
  apparent KD of K4 kissing-loop reporter: 304 nM

## UGGCCUUAAAUUCUAGGAUUAGCGACGUACAAGGAUAUUCGUCAUCGAAGAAGGUGUAGCUAGGAGAGUGAUGUUUUCCAUCGCC [theeternabot_sameState_KL_FMN_A_15]
Input ligand: FMN 200 uM
  apparent KD of K4 kissing-loop reporter: 640 nM
Input ligand: arginine 13.2 mM
  apparent KD of K4 kissing-loop reporter: 449 nM
Input ligand: none
  apparent KD of K4 kissing-loop reporter: 549 nM
[1]
  apparent KD of K4 kissing-loop reporter: 576 nM
[2]
  apparent KD of K4 kissing-loop reporter: 504 nM

## GGUUCUGGAAUCGAGUGAUGUUCGGUGUUGCAGGAUAUAGAGAGAUCUAGAAGGGCAGUUUGUAUUUUAUUGAGUGAUUUUCUUU [Last Minute #3]
Input ligand: FMN 200 uM
  apparent KD of K4 kissing-loop reporter: 84 nM
Input ligand: arginine 13.2 mM
  apparent KD of K4 kissing-loop reporter: 83.1 nM
Input ligand: none
  apparent KD of K4 kissing-loop reporter: 106 nM
[1]
  apparent KD of K4 kissing-loop reporter: 106 nM
[2]
  apparent KD of K4 kissing-loop reporter: 93.4 nM

## UAGUAGCUCUCGGCCGCCACUCCUCAGUGAUGUUGAGAUAUUAAGAGCCAAUUGGCUCAUAUAAAGAGGACCGGGAGAGCUACAU [AK4.2 SS Tryptophan B]
Input ligand: FMN 200 uM
  apparent KD of K4 kissing-loop reporter: 355 nM
Input ligand: arginine 13.2 mM
  apparent KD of K4 kissing-loop reporter: 339 nM
Input ligand: none
  apparent KD of K4 kissing-loop reporter: 365 nM
[1]
  apparent KD of K4 kissing-loop reporter: 350 nM
[2]
  apparent KD of K4 kissing-loop reporter: 126 nM

## CGCGUGGGUUUGAGAGGGUUUGCGCGAAGUGAGGAUAUUUAGGGAGAAAGAAGGCACUAUAAAAUAUAGUGAUGUUAUAUAAGGG [SSFMNA.J]
Input ligand: FMN 200 uM
  apparent KD of K4 kissing-loop reporter: 877 nM
Input ligand: arginine 13.2 mM
  apparent KD of K4 kissing-loop reporter: 186 nM
Input ligand: none
  apparent KD of K4 kissing-loop reporter: 170 nM
[1]
  apparent KD of K4 kissing-loop reporter: 242 nM
[2]
  apparent KD of K4 kissing-loop reporter: 126 nM

## ACAUCGGUUGAGAGUGAUGUUCCUUGUGUUCGAGGACCGGUACGGCCGCCACUCGGGUAGAAAAUAAAAGAUGUGUUUGAUUUUU [BDazzled - #15 SS Tryptophan A]
Input ligand: FMN 200 uM
  apparent KD of K4 kissing-loop reporter: 260 nM
Input ligand: arginine 13.2 mM
  apparent KD of K4 kissing-loop reporter: 42.1 nM
Input ligand: none
  apparent KD of K4 kissing-loop reporter: 143 nM
[1]
  apparent KD of K4 kissing-loop reporter: 275 nM
[2]
  apparent KD of K4 kissing-loop reporter: 223 nM

## AAGUCUCGUUAAUUCGAGGUUACGAUCGAUACCAGUAGCGAGAGGUACCCUUGGCAGCGAAGUGAGUGAUGUUCAUGAAAGAAGA [KL-XTheoA12]
Input ligand: FMN 200 uM
  apparent KD of K4 kissing-loop reporter: 78.5 nM
Input ligand: arginine 13.2 mM
  apparent KD of K4 kissing-loop reporter: 119 nM
Input ligand: none
  apparent KD of K4 kissing-loop reporter: 92.7 nM
[1]
  apparent KD of K4 kissing-loop reporter: 131 nM
[2]
  apparent KD of K4 kissing-loop reporter: 78 nM

## UGAUAGGACAGAAGGAGCGAGGAGUGAUGUUCCUCAAAAGGUCUAGCAAAGCUAGACCCUCCUCAGGUAGGUCGCUGUCCUAUCU [ArgBX 1 #Palindromic #SwitchBubble #StaticStem]
Input ligand: FMN 200 uM
  apparent KD of K4 kissing-loop reporter: 174 nM
Input ligand: arginine 13.2 mM
  apparent KD of K4 kissing-loop reporter: 162 nM
Input ligand: none
  apparent KD of K4 kissing-loop reporter: 167 nM
[1]
  apparent KD of K4 kissing-loop reporter: 232 nM
[2]
  apparent KD of K4 kissing-loop reporter: 158 nM

## GCCGUAGAUUGAAGGAGCGCCUUCUUACCAAGAGUGAUGUUCUUUGGUACCAUGUUCAGUAGGCAGGUAGGUCGCAAUCUACGGC
Input ligand: FMN 200 uM
  apparent KD of K4 kissing-loop reporter: 292 nM
Input ligand: arginine 13.2 mM
  apparent KD of K4 kissing-loop reporter: 258 nM
Input ligand: none
  apparent KD of K4 kissing-loop reporter: 332 nM
[1]
  apparent KD of K4 kissing-loop reporter: 387 nM
[2]
  apparent KD of K4 kissing-loop reporter: 390 nM

## GCCUACGCUGCAGGAUAUAGUUACAGCGACUUAGCCGUUGUAUGUCCAUGGUUCAGUGAUGUUGAACUAGAAGGGCAGCGUAGGC [#02 K4 FMN B Exclusion]
Input ligand: FMN 200 uM
  apparent KD of K4 kissing-loop reporter: 285 nM
Input ligand: arginine 13.2 mM
  apparent KD of K4 kissing-loop reporter: 127 nM
Input ligand: none
  apparent KD of K4 kissing-loop reporter: 132 nM
[1]
  apparent KD of K4 kissing-loop reporter: 134 nM
[2]
  apparent KD of K4 kissing-loop reporter: 154 nM

## UUUAUUAAGACGGCCGCCACUGAAUUAGAGUGAUGUUCUAAAAUUUUUAAUUUUUUUUUUUUCAGCAGGACCGGGUCAAUUAUUA [JR_SSTryptoB_Sub012]
Input ligand: FMN 200 uM
  apparent KD of K4 kissing-loop reporter: 128 nM
Input ligand: arginine 13.2 mM
  apparent KD of K4 kissing-loop reporter: 95.3 nM
Input ligand: none
  apparent KD of K4 kissing-loop reporter: 116 nM
[1]
  apparent KD of K4 kissing-loop reporter: 142 nM
[2]
  apparent KD of K4 kissing-loop reporter: 94.5 nM

## UUAGAAGUAUACUUCAAGAGCUAUACUGAUACCAGAGUCAAUUGACUCCCUUGGCAGCGGAUCGAGUGAUGUUCGUAAGCUCAUU [AK4 SS Theophylline A]
Input ligand: FMN 200 uM
  apparent KD of K4 kissing-loop reporter: 464 nM
Input ligand: arginine 13.2 mM
  apparent KD of K4 kissing-loop reporter: 456 nM
Input ligand: none
  apparent KD of K4 kissing-loop reporter: 583 nM
[1]
  apparent KD of K4 kissing-loop reporter: 521 nM
[2]
  apparent KD of K4 kissing-loop reporter: 502 nM

## UAUGAAUGUGGAGGAUAUUGAUUGAAUCUUGGUCUGGAGUGAUGUUCCGGGAAGCCUUGGAUUCAUCGAGAAGGCCAUGGAUAGU [#03 K4 FMN B Same State]
Input ligand: FMN 200 uM
  apparent KD of K4 kissing-loop reporter: 111 nM
Input ligand: arginine 13.2 mM
  apparent KD of K4 kissing-loop reporter: 111 nM
Input ligand: none
  apparent KD of K4 kissing-loop reporter: 118 nM
[1]
  apparent KD of K4 kissing-loop reporter: 109 nM
[2]
  apparent KD of K4 kissing-loop reporter: 95.9 nM

## CGUACGGUUUCUUUCUUUCCGUACGAGUGCCGAGGACCGGUACGGCCGCCACUCGCUACAGCCUAGUGAUGUUAGGAACGUGUUA
Input ligand: FMN 200 uM
  apparent KD of K4 kissing-loop reporter: 87.2 nM
Input ligand: arginine 13.2 mM
  apparent KD of K4 kissing-loop reporter: 73.1 nM
Input ligand: none
  apparent KD of K4 kissing-loop reporter: 81.8 nM
[1]
  apparent KD of K4 kissing-loop reporter: 87.3 nM
[2]
  apparent KD of K4 kissing-loop reporter: 54.7 nM

## UGAUACCAGACGGCCGCCACUGGGACCGGGAGUGAUGUUCCAAAUAAAAGAAACUCGGCCGCCACUAGGACCGGGUCUGGUAUCU [TrypBX 30 #DoubleAptamer #SwitchBubble]
Input ligand: FMN 200 uM
  apparent KD of K4 kissing-loop reporter: 622 nM
Input ligand: arginine 13.2 mM
  apparent KD of K4 kissing-loop reporter: 278 nM
Input ligand: none
  apparent KD of K4 kissing-loop reporter: 379 nM
[1]
  apparent KD of K4 kissing-loop reporter: 479 nM
[2]
  apparent KD of K4 kissing-loop reporter: 110 nM

Reference: the supplement of paper PMC9170038
